Results reported in US20230348609A1 (WUXI BIOLOGICS SHANGHAI, published 2023).

Experiments:
[1] = molecular target: T1, human CD40, full-length, on cells (human, UniProt P25942 21-277); assay: FACS competition on W352-CHOK1.hPro1.A7 cells; competitor W352-hpro1L1.ECD.mFc at 5 ug/mL
T1 construct: whole, on cells; Transfected full-length CD40 on CHO-K1 and U937 cells; Endogenous CD40 on Raji, A431, Ramos, primary B cells and dendritic cells; also called cell surface human CD40; W352-CHOK1.hPro1.A7
T1 sequence (P25942 21-277): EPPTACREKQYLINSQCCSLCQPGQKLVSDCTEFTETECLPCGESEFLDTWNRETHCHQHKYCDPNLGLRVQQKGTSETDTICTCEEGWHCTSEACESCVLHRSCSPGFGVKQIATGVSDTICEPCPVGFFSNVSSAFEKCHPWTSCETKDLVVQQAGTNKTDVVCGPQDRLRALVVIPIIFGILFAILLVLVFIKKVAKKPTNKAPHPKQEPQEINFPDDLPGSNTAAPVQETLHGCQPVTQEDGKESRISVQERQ
Description: W352-CHOK1.hPro1.A7 cells were plated in a 96-well plate at a density of 1×10⁵ cells/well. A constant concentration of W352-hPro1L1.EECD.mFc (5 μg/mL) diluted in 1×PBS/1% BSA was added to the cells, followed by serially diluted antibodies (3-fold serially diluted from 60 nM to 0.0274 nM in 1×PBS/1% BSA), and mixed well. The plate was incubated at 4° C. for 1 hour.

[2] = molecular target: T1, human CD40, full-length, on cells; assay: FACS on Raji cells (human CD40 binding assay); Raji cells
Description: (§1) W352-CHOK1.hPro1.A7 (1×10⁵ cells/well), Raji (1×10⁵ cells/well) or A431 (5×10⁴ cells/well) cells were incubated with various concentrations of W3525 antibody (3-fold serially diluted from 100 nM to 0.0051 nM, or 5-fold serially diluted from 100 nM to 0.00128 nM) at 4° C. for 1 hour. After washing with 1×PBS/1% BSA, the secondary antibody, Alex647-labeled goat anti-human IgG (1:250) or R-PE-labeled goat anti-human IgG (1:150) was added and incubated with cells at 4° C. in dark for 1 hour. Anti-human CD40 antibodies BMK4 and BMK5 were used as positive controls. Human IgG1 and IgG2 isotype antibodies were used as isotype controls. The cells were then washed and re-suspended in 1×PBS/1% BSA. MFI of the cells was measured by a flow cytometer and analyzed by FlowJo. GraphPad Prism was used to plot the log of antibody concentration (x-axis) versus MFI (y-axis). The EC50 values were determined using four-parameter dose-response curve model.
(§2) The binding result of W3525 on W352-CHOK1.hPro1.A7, Raji and A431 cells are shown in FIGS. 1, 2 and 3, respectively.

[3] = molecular target: T1, human CD40, full-length, on cells; assay: FACS on W352-CHOK1.hPro1.A7 cells (CHO-K1 with full-length human CD40); W352-CHOK1.hPro1.A7 cells
Description: as §1, §2

[4] = molecular target: T1, human CD40, full-length, on cells; assay: cell-based or functional assay
W352-cynoPro1.ECD.His = molecular target: T2, W352-cynoPro1.ECD.His (cynomolgus monkey, UniProt G7PG38 21-193); assay: SPR, Biacore T200; antibody captured by goat anti-human Fc; analyte W352-cynoPro1.ECD.His
T2 construct: range 21-193; Also used for the 'recombinant cynomolgus monkey CD40 extracellular domain' coated in the ELISA of 3.5; also called Cynomolgus monkey CD40 extracellular domain, His tag; W352-cPro1.ECD.His; not shown: His tag
Description: The affinity of W3525 to cynomolgus monkey CD40 was determined using Biacore T200. The process of immobilization was the same as that of Biacore 8K. The antibody W3525 was diluted to 33.35 nM in running buffer (1×HBS-EP+) and was captured onto Fc2 at a flow rate of 10 μL/min for 60 s. Seven concentrations (0, 1.56, 3.13, 6.25, 12.5, 25 and 50 nM) of analyte W352-cynoPro1.ECD.His were injected orderly to Fc1 and Fc2 at a flow rate of 30 μL/min for an association phase of 240 s, followed by 300 s dissociation. After each cycle, glycine solution (10 mM, pH 1.5) as regeneration buffer was injected to regenerate the chip.
Molecular weight of 29 kDa was used to calculate the molar concentration of W352-cPro1.ECD.His.

[5] = molecular target: T3, recombinant human BCMA extracellular domain (human, UniProt Q02223 1-54); assay: ELISA, plate coated with 1 ug/mL recombinant extracellular domain
T3 construct: extracellular domain
T3 sequence (looked up): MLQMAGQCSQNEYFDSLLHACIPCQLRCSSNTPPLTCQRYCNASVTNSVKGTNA
Description: (§3) Plate was pre-coated with 1 μg/mL of recombinant human CD40, OX40, 4-1BB, GITR or BCMA extracellular domain in 100 μL coating buffer (0.02 M Na₂CO₃ and 0.18 M NaHCO₃, pH9.2) per well at 4° C. overnight. Next day, the plate was washed with 1×PBST for one time. After 1-hour blocking using 200 μL of 1×PBS/2% BSA, the plate was washed using 1×PBST for 3 times. W3525 was added to the plate at a concentration of 66.7 nM and incubated at ambient temperature for 1 hour. Anti-CD40 antibodies BMK4 and BMK5, anti-OX40 antibody MEDI0562, anti-4-1BB antibody BMS-663513, anti-GITR antibody INCAGN01876 and anti-BCMA antibody EM801 were used as positive controls, respectively. Human IgG2 isotype antibody was used as isotype control. After incubation, the plate was washed using 1×PBST for 3 times. HRP-labeled goat anti-human IgG antibody diluted in 1×PBS/2% BSA at a ratio of 1:5000 was added and incubated for 1 hour. After washing with 1×PBST for 6 times, the color was developed by dispensing 100 μL of TMB substrate, and then reaction was stopped by adding 100 μL of 2M HCl. Absorbance was read at 450 nm and 540 nm using a microplate spectrophotometer. GraphPad Prism was used to plot the antibody concentration (x-axis) versus absorbance (y-axis). All samples were tested in duplicate.

[6] = molecular target: T4, recombinant human OX40 extracellular domain (human, UniProt P43489 29-214); assay: as above
T4 construct: extracellular domain
T4 sequence (looked up): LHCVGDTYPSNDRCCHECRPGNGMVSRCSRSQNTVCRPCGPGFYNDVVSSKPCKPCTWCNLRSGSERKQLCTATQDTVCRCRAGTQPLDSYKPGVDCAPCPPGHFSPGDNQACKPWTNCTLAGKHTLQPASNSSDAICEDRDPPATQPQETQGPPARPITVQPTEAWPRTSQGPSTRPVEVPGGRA
Description: as §3

[7] = molecular target: T5, Human GITR protein (His tag, ECD) (human, UniProt Q9Y5U5 26-162); assay: as above
T5 construct: extracellular domain; Bought protein
T5 sequence (looked up): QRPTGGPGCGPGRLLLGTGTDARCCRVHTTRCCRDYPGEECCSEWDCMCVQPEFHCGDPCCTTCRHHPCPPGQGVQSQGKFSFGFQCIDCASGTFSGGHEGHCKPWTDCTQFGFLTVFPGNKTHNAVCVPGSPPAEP
Description: as §3

[8] = molecular target: T6, recombinant human 4-1BB extracellular domain (human, UniProt Q07011 24-186); assay: as above
T6 construct: extracellular domain
T6 sequence (Q07011 24-186): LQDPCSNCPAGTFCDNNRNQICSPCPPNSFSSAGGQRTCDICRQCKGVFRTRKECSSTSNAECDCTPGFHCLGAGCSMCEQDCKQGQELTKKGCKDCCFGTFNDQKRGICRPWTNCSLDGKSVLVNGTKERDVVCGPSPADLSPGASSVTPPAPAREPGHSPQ
Description: as §3

[9] = molecular target: T1, human CD40, full-length, on cells; assay: cell-based or functional assay; remark: listed apart in the source
W352-hPro1.ECD.His = molecular target: T7, W352-hPro1.ECD.His (human, UniProt P25942 21-193); assay: SPR, Biacore 8K; antibody captured by goat anti-human Fc; analyte W352-hPro1.ECD.His; 1:1 model
T7 construct: range 21-193; Also used for the 'recombinant human CD40 extracellular domain' coated in the ELISAs of 3.4 and 3.5; also called Human CD40 extracellular domain, His tag; human CD40 free protein; not shown: His tag
T7 sequence (P25942 21-193 limits assumed): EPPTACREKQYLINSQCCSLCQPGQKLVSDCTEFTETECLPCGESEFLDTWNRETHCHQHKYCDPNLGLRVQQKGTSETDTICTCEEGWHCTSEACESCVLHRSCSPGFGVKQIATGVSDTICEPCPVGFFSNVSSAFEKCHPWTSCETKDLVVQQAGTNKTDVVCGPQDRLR
Description: The affinity of W3525 to human CD40 was determined using Biacore 8K. The activator was prepared by mixing 400 mM EDC and 100 mM NHS immediately prior to injection. The CMS sensor chip was activated for 420 s with the activator at a flow rate of 10 μL/min. Goat anti-human Fc IgG (30 μg/mL in 10 mM NaAc, pH 4.5) was then injected to the channels for 420 s at a flow rate of 10 μL/min The chip was deactivated by 1 M ethanolamine-HCl at a flow rate of 10 μL/min for 420 s. After immobilization, the antibody W3525 was diluted to 66.7 nM in running buffer (1×HBS-EP+) and was captured onto the channel Fc4 at a flow rate of 10 μL/min for 30 s. Seven concentrations (0, 1.5625, 3.125, 6.25, 12.5, 25 and 50 nM) of analyte W352-hPro1.ECD.His were injected orderly to the channels at a flow rate of 30 μL/min for an association phase of 90 s, followed by 300 s dissociation. Glycine solution (10 mM, pH 1.5) as regeneration buffer was injected following dissociation phase to regenerate the chip.
Molecular weight of 29 kDa was used to calculate the molar concentration of W352-hPro1.ECD.His.

[10] = molecular target: T1, human CD40, full-length, on cells; assay: cell-based or functional assay; remark: listed apart in the source
[11] = molecular target: T1, human CD40, full-length, on cells; assay: FACS on A431 cells (human CD40 binding assay); A431 cells
Description: as §1, §2

[12] = molecular target: T8, CD40 protein, rat, recombinant (His tag) (rat, UniProt A6JXD6 20-193); assay: ELISA, plate coated with 1 ug/mL recombinant CD40 extracellular domain
T8 construct: Bought protein; also called rat CD40; not shown: C-terminal His tag of the vendor's construct (SinoBiological 80151-R08H)
T8 sequence: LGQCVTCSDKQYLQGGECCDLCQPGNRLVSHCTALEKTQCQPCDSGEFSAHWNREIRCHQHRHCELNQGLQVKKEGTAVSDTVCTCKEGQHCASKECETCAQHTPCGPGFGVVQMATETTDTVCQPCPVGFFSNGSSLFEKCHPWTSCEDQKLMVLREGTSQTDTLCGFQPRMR
Description: as §3
(§4) Plate was pre-coated with 1 μg/mL of recombinant human, cynomolgus monkey, mouse, canine or rat CD40 extracellular domain in 100 μL coating buffer per well at 4° C. overnight. Then the ELISA procedure was performed as described above. Anti-human CD40 antibodies BMK4 and BMK5 were used as positive controls. Human IgG1 and IgG2 isotype antibodies were used as isotype controls.

W352-mPro1.ECD.His = molecular target: T9, W352-mPro1.ECD.His (mouse, UniProt P27512 20-193); assay: as above
T9 construct: range 20-193; The ELISA of 3.5 says only 'recombinant mouse CD40 extracellular domain'; also called Mouse CD40 extracellular domain, His tag; mouse CD40; not shown: His tag
T9 sequence (P27512 20-193 limits assumed): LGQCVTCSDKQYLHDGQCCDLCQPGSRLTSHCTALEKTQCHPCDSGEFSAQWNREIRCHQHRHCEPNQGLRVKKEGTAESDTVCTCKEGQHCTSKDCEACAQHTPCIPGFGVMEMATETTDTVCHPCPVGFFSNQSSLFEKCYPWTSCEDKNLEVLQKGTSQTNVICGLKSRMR
Description: as §3, §4

[13] = molecular target: T10, CD40 protein, canine, recombinant (His tag) (canine, UniProt Q7YRL5 21-194); assay: as above
T10 construct: extracellular domain; Bought protein; also called canine CD40
T10 sequence (looked up): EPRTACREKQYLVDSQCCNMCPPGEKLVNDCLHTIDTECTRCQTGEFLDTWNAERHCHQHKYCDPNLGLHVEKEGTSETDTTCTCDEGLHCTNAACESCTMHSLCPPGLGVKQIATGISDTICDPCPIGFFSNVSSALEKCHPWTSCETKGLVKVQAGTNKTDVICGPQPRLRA
Description: as §3, §4

[14] = molecular target: T11, cynomolgus monkey CD40 on transiently transfected 293F cells (cynomolgus monkey, UniProt G7PG38 21-278); assay: FACS on 293F cells transiently transfected with cynomolgus monkey CD40
T11 construct: whole, on cells; also called cell surface cynomolgus monkey CD40
Description: Cynomolgus monkey CD40 transiently transfected 293F cells (2×10⁵ cells/well) were incubated with various concentrations of W3525 (3-fold serially diluted from 200 nM to 0.0102 nM) at 4° C. for 1 hour. After washing with 1×PBS/1% BSA, a secondary antibody, R-PE-labeled goat anti-human IgG (1:150) was added and incubated with cells at 4° C. in dark for 1 hour. The cells were washed and suspended and the MFI and EC50 values were determined as described above.

IC50 [1]: 1.4 nM
EC50 [2]: 0.36 nM
EC50 [3]: 1.1 nM
EC50, NFκB reporter assay, W352-Ramos.NFκBRE.luc [4]: 1.4 nM
EC50, NFκB reporter assay, W352-U937.hPro1.NFκBRE.luc [4]: 1.3 nM
Kd (W352-cynoPro1.ECD.His): 8.47 nM
koff (W352-cynoPro1.ECD.His): 0.00377 s⁻¹
kon (W352-cynoPro1.ECD.His): 444000 M⁻¹ s⁻¹
binding result [5]: no binding (tested: 66.7 nM)
binding result [6]: no binding (tested: 66.7 nM)
binding result [7]: no binding (tested: 66.7 nM)
binding result [8]: no binding (tested: 66.7 nM)
EC50, B cell proliferation [9]: 0.16 nM
Kd (W352-hPro1.ECD.His): 7.12 nM
koff (W352-hPro1.ECD.His): 0.00405 s⁻¹
kon (W352-hPro1.ECD.His): 569000 M⁻¹ s⁻¹
EC50, CD54 expression, DC activation assay [10]: 0.35 nM
EC50, CD80 expression, DC activation assay [10]: 0.37 nM
EC50, CD83 expression, DC activation assay [10]: 0.16 nM
EC50, CD86 expression, DC activation assay [10]: 0.56 nM
EC50, IL-12p40 release, DC activation assay [10]: 0.47 nM
EC50 [11]: 0.16 nM
binding result [12]: no binding
binding result (W352-mPro1.ECD.His): no binding
binding result [13]: no binding
EC50 [14]: 2.4 nM
B1: W3525-1.9.16-P5-uIgG2K (antibody, V domains shown)
VH: QVQLVQSGAEVKKPGSSVKVSCKASGDTVSSYGISWVRQAPGQGLEWMGGSIPFFGTPNYAQKFQGRVTFTADESTSTAYMELSSLRSEDTAVYYCARARRGYSYGHYHYYAMDVWGQGTTVTVAS
VL: DTVMTQSPLSLPVTPGEPASISCRSGQSLLHNNAYNYLDWYLQKPGQSPQLLIYLGSNRASGVPDRFSGSGSGTDFTLKISRVEAEDVGVYYCMQALQTPLSFGGGTKVEIKR
notes: Fully human IgG2 kappa with wild-type human IgG2 constant region; also called W3525 antibody; final lead antibody
